Experiment [1] deals with T1, BCMA on NCI-H929 cells (human, UniProt Q02223 1-184).
T1 sequence (looked up): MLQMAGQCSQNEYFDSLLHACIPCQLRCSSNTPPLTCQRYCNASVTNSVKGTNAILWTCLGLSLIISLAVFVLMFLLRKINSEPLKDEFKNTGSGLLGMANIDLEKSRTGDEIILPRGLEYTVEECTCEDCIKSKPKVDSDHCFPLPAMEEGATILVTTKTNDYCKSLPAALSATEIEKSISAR
The experiment is described as follows: cell-based or functional assay.

Experiment [2] concerns the target T2, BCMA on HEK293F-BCMA-NF-kB-luc cells (clone 1H2) (UniProt Q02223 1-184, limits assumed).
T2 sequence (looked up): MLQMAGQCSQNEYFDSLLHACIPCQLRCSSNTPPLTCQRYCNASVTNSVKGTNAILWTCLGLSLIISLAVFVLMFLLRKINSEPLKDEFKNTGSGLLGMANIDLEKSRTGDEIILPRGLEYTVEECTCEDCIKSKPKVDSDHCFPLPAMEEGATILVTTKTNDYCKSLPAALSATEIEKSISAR
Description: cell-based or functional assay.

The target of experiment [3] is T2, BCMA on HEK293F-BCMA-NF-kB-luc cells …. Description: cell-based or functional assay. The source holds these as a separate data set.
Experiment [4] concerns the target T3, recombinant human BCMA extracellular domain/Fc dimer (human).
T3 construct: also called Human BCMA (ECD); human BCMA(ECD)/Fc
Description: SPR, Biacore T200, 25 C; antibody captured on anti-mouse IgG Fc, BCMA(ECD)/Fc injected. The procedure: (§1) Briefly, goat anti-mouse IgG Fc antibody was directly immobilized across a biosensor chip, and antibody samples were injected over reaction matrices at a flow rate of 5 μl/min. Mouse anti-BCMA IgG test antibody was injected over the immobilized surface and captured by the immobilized anti-Fc antibodies. Human and cynomolgus BCMA(ECD)/Fc target polypeptides were then injected over the captured mouse anti-BCMA IgG surface. The association and dissociation rate constants, kₒₙ (M⁻¹s⁻¹) and koff (s⁻¹), respectively, were determined with a continuous flow rate of 30 μl/min. Rate constants were derived by making kinetic binding measurements at five different concentrations of target BCMA(ECD) polypeptide. The equilibrium dissociation constant KD (M) of the reaction between antibodies and related target proteins was then calculated from the kinetic rate constants using the formula KD=koff/kₒₙ. Kinetic constants were determined by processing and fitting the data to a 1:1 binding model using Biacore analysis software.

Experiment [5] has as its target T4, cynomolgus BCMA(ECD)/Fc target polypeptide (cynomolgus).
T4 construct: extracellular domain; also called Cyno BCMA (ECD); cynoBCMA/Fc
The description is as above. The procedure: as §1

Experiment [6] deals with T5, human CD3 on the surface of Jurkat cells (human, UniProt P07766 23-207; P09693 23-182; P04234 22-171).
T5 construct: whole, on cells; Endogenous CD3 complex of the Jurkat T cell line; also called cell surface CD3 target on Jurkat cells; CD3-expressing Jurkat cells
T5 sequence (P07766 23-207, chain 1 of 3): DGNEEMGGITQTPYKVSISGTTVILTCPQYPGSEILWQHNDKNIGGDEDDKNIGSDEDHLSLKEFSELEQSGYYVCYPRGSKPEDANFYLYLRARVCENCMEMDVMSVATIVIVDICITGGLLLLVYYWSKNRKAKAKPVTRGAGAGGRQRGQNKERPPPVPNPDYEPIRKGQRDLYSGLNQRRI
T5 sequence (P09693 23-182, chain 2 of 3): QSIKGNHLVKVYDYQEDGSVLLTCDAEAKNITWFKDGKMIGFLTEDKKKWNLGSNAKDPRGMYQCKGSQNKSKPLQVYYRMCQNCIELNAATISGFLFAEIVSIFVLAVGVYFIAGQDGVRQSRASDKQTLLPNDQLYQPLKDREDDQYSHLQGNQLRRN
T5 sequence (P04234 22-171, chain 3 of 3): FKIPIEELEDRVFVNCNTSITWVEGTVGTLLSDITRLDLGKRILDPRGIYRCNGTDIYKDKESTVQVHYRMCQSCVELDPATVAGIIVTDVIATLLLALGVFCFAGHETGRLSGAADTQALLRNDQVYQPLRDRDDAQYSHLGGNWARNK
Description: cell binding assay, Jurkat cells.

In experiment [7] the target is T6, cynoCD3εγ/Fc fusion protein (cynomolgus monkey, UniProt Q95LI5 22-117; Q95LI7 23-113).
T6 construct: also called cynomolgus monkey CD3ε/γ heterodimer-Fc fusion protein; not shown: linker and Fc not described for the cynomolgus construct
T6 sequence (looked up) 1: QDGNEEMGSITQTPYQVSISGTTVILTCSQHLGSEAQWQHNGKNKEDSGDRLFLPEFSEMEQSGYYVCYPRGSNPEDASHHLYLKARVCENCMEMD
T6 sequence (looked up) 2: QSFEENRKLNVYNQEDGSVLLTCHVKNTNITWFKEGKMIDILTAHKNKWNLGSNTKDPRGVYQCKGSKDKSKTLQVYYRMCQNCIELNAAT
Description: ELISA on plate-coated cyno CD3e/g heterodimer-Fc, OD450nm, unit taken from the concentration axis. The procedure: (§2) The binding properties of the isolated murine anti-CD3 antibodies were measured with ELISA as follows: Heterodimeric CD3εγ/Fc fusion protein was coated at 1 μg/mL on 96-well plates at 4° C. overnight. Plates were washed once with washing buffer (PBS containing 0.05% Tween 20) and blocked with ELISA blocking buffer (1% BSA in PBS containing 0.05% Tween 20) at room temperature for 2 hours. Anti-CD3 antibodies were then added and incubated at 37° C. for 1 hour. Plates were washed three times with washing buffer. HRP labeled anti-mouse IgG secondary antibody (Sigma, Cat. #A0168) was added and the plates were incubated at 37° C. for 30 minutes then washed 5 times in washing buffer. 100 μl of tetramethylbenzidine (TMB) chromogenic solution was added to each well. Following color development, the reaction was stopped with 1 Normal HCl and absorbance at 450 nm was measured on a Varioskan™ LUX microplate reader (ThermoFisher Scientific). Binding signals were plotted against antibody concentration with GraphPad Prism 5.0 software and EC50s were calculated accordingly.
Background: An ELISA detects its analyte on a solid surface through an enzyme-linked reagent.

In experiment [8] the target is T7, recombinant huCD3εγ/Fc fusion protein (fusion protein heterodimer) (human).
T7 construct: also called huCD3/Fc dimer; heterodimeric CD3εγ/Fc fusion protein
T7 sequence (chain, as listed by the source limits assumed, chain 1 of 2): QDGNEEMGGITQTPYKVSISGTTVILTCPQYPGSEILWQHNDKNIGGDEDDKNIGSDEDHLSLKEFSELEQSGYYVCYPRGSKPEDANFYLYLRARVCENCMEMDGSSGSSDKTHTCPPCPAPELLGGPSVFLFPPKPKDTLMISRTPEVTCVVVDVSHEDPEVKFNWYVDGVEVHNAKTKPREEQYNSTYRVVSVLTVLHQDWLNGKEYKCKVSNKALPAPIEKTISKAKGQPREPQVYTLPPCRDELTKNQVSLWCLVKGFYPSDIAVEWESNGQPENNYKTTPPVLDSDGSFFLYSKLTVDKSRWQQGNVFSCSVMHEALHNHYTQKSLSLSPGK
T7 sequence (chain, as listed by the source limits assumed, chain 2 of 2): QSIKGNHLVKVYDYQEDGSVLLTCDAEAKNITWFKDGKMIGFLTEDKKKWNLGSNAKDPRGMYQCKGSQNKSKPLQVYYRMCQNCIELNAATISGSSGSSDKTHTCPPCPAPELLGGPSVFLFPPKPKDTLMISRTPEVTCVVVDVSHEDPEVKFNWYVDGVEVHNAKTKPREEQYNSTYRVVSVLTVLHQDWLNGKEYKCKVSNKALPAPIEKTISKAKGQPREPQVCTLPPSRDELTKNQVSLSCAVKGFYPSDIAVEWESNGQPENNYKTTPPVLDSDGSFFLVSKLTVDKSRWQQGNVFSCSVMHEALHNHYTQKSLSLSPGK
Description: ELISA on plate-coated human CD3e/g heterodimer-Fc, OD450nm, unit taken from the concentration axis. The procedure:
as §2

Experiment [9] deals with T5, human CD3 on the surface of Jurkat cells. The experiment is described as follows: flow cytometry on Jurkat cells, MFI against antibody conc. (nM). The procedure:
Different humanized VH and VK combinations led to humanized anti-CD3 variants with different CD3 binding affinities. The binding activity of the humanized variants of mAbCD3-001 were tested via flow cytometry with the human CD3-expressing Jurkat T cell line. 5×10⁵ Jurkat cells in FACS buffer were seeded into each well of a 96-well plate. Cells were centrifuged at 400 g for 5 minutes and supernatants were discarded. For each well, 100 μl of serially diluted antibodies were then added and mixed with the cells. After 40 minutes incubation at 4° C., plates were washed several times to remove excess antibodies. […] After another round of centrifugation and a washing step, cells were resuspended in FACS buffer for reading on a CytoFLEX Flow Cytometer (Beckman Coulter). Median Fluorescence Intensity (MFI) readouts were plotted against antibody concentration and analyzed with GraphPad Prism 5.0 software.
(A flow cytometer gives signals particle by particle.)

B1: mAbBCMA-003 (antibody, V domains shown)
VH: EVQLQQSGTVLARPGASVRMSCKASGYIFPNFWMHWVKQRPGQGLDWIGAFYPGNDDTYYNQKFKGKAKLTAVTSASTAYMELSSLTSEDSAVYYCARSGYYGSSDAMDYWGQGTSVTVSS
VL: DIQMTQSPASLSASVGETVTVTCGASENIYGALNWYQRKQGKSPQLLIYGATNLADGISSRFSGSGSGRQFSLKISSLLPDDVATYFCQSVLTTPWTFGGGTKLEIK
notes: Mouse anti-BCMA IgG from hybridoma
B1: the “EC50 of inhibition of BAFF-induced NF-kB phosphorylation in NCI-H929 cells (inhibition %), unit from the axis” value in experiment [1] was 16.7 nM. The “EC50 of inhibition of the BAFF-induced NF-kB luciferase signal in HEK293F-BCMA-NF-kB-luc cells (inhibition %), unit from the axis” value in [2] came out at 3.87 nM. For the same molecule, the “EC50 of inhibition of the APRIL-induced NF-kB luciferase signal in HEK293F-BCMA-NF-kB-luc cells (inhibition %), unit from the axis” value in [3] is 6.18 nM. In addition, in experiment [4], the Kd – broadly, the free concentration of one partner at which half of the binding sites on the other are occupied at equilibrium, for simple one-to-one binding – stood at 0.408 nM; the koff (as a rule, the rate constant with which the complex falls apart) amounted to 1.85e-05 s⁻¹; the kon (in general, the second-order rate constant of association) came out at 45400 M⁻¹ s⁻¹. In experiment [5], this molecule gave a Kd of 3.9 nM, a koff of 0.000236 s⁻¹ and an on-rate constant (kon) of 60600 M⁻¹ s⁻¹.

B2: mAbCD3-001 (antibody, V domains shown)
VH: QVQLQQSGPDLVKPGASVKISCKASGFSFTNYYVHWMKQRPGQGLEWIGWISPGSDNTKYNEKFKGKATLTADTSSTTAYMQLSSLTSEDSAVYYCARDDYGNYYFDYWGRGSTLTVSS
VL: DIVMSQSPSSLAVSAGEKVTMTCKSSQSLLNSRTRKNYLAWYQQKPGQSPKLLIYWASTRESGVPDRFTGSGSGTDFTLTISSVQAEDLAVYYCKQSYILRTFGGGTKLEIK
notes: Murine hybridoma monoclonal antibody
With B2, the binding result in experiment [6] is “binds”. The concentration giving a half-maximal response (EC50) (commonly the concentration needed to bring the measured effect to its halfway point) in experiment [7] is 0.0235 µg/mL; in experiment [8], 0.028 µg/mL.

B3: mAbCD3-002 (antibody, V domains shown)
VH: QVQLQQSGPELVKPGASVRISCKASGYTFTNYYIHWVKQRPGQGLEWIGWINLGDVNTKFNEKFKDKATLTADKSSTTAYMQLSSLTSEDSAVYFCARDGYSFYYFDFWGQGTTLTVSS
VL: DIVMSQSPSSLAVSVGEKVTMSCKASQSLFNSRTRKNYLAWYQQKPGQSPKLLIYWASTRESGVPDRFTGSGSGTDFIFTISSVQAEDLAIYYCIQSHTLRTFGGGTKLEIK
notes: as for B2
As for B3, the binding result in [6] was “binds”. Besides, the EC50 in [7] came to 0.0109 µg/mL; in [8], 0.01 µg/mL.

B4: HuEM0006-01c (antibody, human IgG1, kappa, L234A L235A, V domains shown)
VH: QVQLQQSGPDLVKPGASVKISCKASGFSFTNYYVHWMKQRPGQGLEWIGWISPGSDNTKYNEKFKGKATLTADTSSTTAYMQLSSLTSEDSAVYYCARDDYGNYYFDYWGRGSTLTVSS
VL: DIVMSQSPSSLAVSAGEKVTMTCKSSQSLLNSRTRKNYLAWYQQKPGQSPKLLIYWASTRESGVPDRFTGSGSGTDFTLTISSVQAEDLAVYYCKQSYILRTFGGGTKLEIKR
notes: also called chimeric control antibody
Consider B4, for which, in experiment [9], the binding result is given as “binds”.
